Reference: patent US20110229472A1 (Amgen, published 2011)
Ends that are not written are not given here.

T1: Recombinant human MPL (human, UniProt P40238 26-491, limits assumed)
T1 construct: also called hu-mpl; hu-MPL
T1 sequence (looked up): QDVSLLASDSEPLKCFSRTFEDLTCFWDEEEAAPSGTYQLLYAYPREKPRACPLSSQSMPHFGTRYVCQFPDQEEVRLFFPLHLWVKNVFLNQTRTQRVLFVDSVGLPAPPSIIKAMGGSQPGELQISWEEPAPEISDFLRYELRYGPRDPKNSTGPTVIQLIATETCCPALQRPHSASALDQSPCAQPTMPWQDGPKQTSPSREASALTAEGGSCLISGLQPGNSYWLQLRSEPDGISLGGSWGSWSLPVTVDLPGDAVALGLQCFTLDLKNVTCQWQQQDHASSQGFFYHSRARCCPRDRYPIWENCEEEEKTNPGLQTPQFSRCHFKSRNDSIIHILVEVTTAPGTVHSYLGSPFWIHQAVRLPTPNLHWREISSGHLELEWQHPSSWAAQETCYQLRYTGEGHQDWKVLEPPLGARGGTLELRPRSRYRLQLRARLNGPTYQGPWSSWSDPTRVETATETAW


target: T1, Recombinant human MPL; assay: phage ELISA titration: phagemid particles displaying the peptide, 5-fold dilution series (cfu/ul), on plate-coated recombinant human MPL, HRP-anti-M13 detection, chemiluminescent readout (Example 1, sections 4B and 5)

Binder	EC50 (read off the curve) [cfu/ul]
QGALRDGPTLKQWLEYRRQAHS (two-residue caps at each end; also called TMP04) [TMP4 (22-residue capped peptide)]	~100000
QGGAREGPTLRQWLEWVRVGHS (two-residue caps at each end; also called TMP02) [TMP2 (22-residue capped peptide)]	~400000
QGCSSGGPTLREWLQCRRMQHS (not fully specified; cysteine pairing not given here, two-residue caps at each end; Two Cys) [TMP22 (22-residue capped peptide)]	~200000

Second part, the binder after the results:

EC50 (read off the curve) [cfu/ul]	Binder
~800000	QGWCKEGPTLREWLRWGFLCHS (not fully specified; cysteine pairing not given here, two-residue caps at each end; Two Cys) [TMP21 (22-residue capped peptide)]
~200000	QGRDLDGPTLRQWLPLPSVQHS (two-residue caps at each end; also called TMP03) [TMP3 (22-residue capped peptide)]
~100000	QGCSWGGPTLKQWLQCVRAKHS (not fully specified; cysteine pairing not given here, two-residue caps at each end; Two Cys) [TMP23 (22-residue capped peptide)]
